IntAct's records for PubMed 31515488

B1: Isoform 6 of F-box only protein 11 (Homo sapiens), Q86XK2-6 (parent)
chain: MVAEESGPGAQNSPYQLRRKTLLPKRTACPTKNSMEGASTSTTENFGHRAKRARVSGKSQDLSAAPAEQYLQEKLPDEVVLKIFSYLLEQDLCRAACVCKRFSELANDPILWKRLYMEVFEYTRPMMHPEPGKFYQINPEEYEHPNPWKESFQQLYKGAHVKPGFAEHFYSNPARYKGRENMLYYDTIEDALGGVQEAHFDGLIFVHSGIYTDEWIYIESPITMIGAAPGKVADKVIIENTRDSTFVFMEGSEDAYVGYMTIRFNPDDKSAQHHNAHHCLEITVNCSPIIDHCIIRSTCTVGSAVCVSGQGACPTIKHCNISDCENVGLYITDHAQGIYEDNEISNNALAGIWVKNHGNPIIRRNHIHHGRDVGVFTFDHGMGYFESCNIHRNRIAGFEVKAYANPTVVRCEIHHGQTGGIYVHEKGRGQFIENKIYANNFAGVWITSNSDPTIRGNSIFNGNQGGVYIFGDGRGLIEGNDIYGNALAGIQIRTNSCPIVRHNKIHDGQHGGIYVHEKGQGVIEENEVYSNTLAGVWVTTGSTPVLRRNRIHSGKQVGVYFYDNGHGVLEDNDIYNHMYSGVQIRTGSNPKIRRNKIWGGQNGGILVYNSGLGCIEDNEIFDNAMAGVWIKTDSNPTLRRNKIHDGRDGGICIFNGGRGLLEENDIFRNAQAGVLISTNSHPILRKNRIFDGFAAGIEITNHATATLEGNQIFNNRFGGLFLASGVNVTMKDNKIMNNQDAIEKAVSRGQCLYKISSYTSYPMHDFYRCHTCNTTDRNAICVNCIKKCHQGHDVEFIRHDRFFCDCGAGTLSNPCTLAGEPTHDTDTLYDSAPPIESNTLQHN
B2: 6-pyruvoyl tetrahydrobiopterin synthase (Homo sapiens), Q03393 (parent)
chain: MSTEGGGRRCQAQVSRRISFSASHRLYSKFLSDEENLKLFGKCNNPNGHGHNYKVVVTVHGEIDPATGMVMNLADLKKYMEEAIMQPLDHKNLDMDVPYFADVVSTTENVAVYIWDNLQKVLPVGVLYKVKVYETDNNIVVYKGE

Variants of: B1
Conditions: with skp1_human SKP1, P63208
Sequence of skp1_human SKP1, P63208 (P63208 whole entry): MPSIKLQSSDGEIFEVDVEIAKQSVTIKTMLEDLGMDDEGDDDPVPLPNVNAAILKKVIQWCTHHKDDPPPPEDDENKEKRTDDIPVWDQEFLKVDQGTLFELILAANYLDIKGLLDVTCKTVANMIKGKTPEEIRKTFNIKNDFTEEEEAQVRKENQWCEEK
For A703T, the “effect of a mutation on the interaction” value was “with no effect”.

Variants of: B2
Conditions: with c1qc_human C1QC
MSTEGGGRCCQAQVSRRISFSASHRLYSKFLSDEENLKLFGKCNNPNGHGHNYKVVVTVHGEIDPATGMVMNLADLKKYMEEAIMQPLDHKNLDMDVPYFADVVSTTENVAVYIWDNLQKVLPVGVLYKVKVYETDNNIVVYKGE [R9C] was tested, and the “effect of a mutation on the interaction” value was “disrupting interaction strength”. With MSTEGGGRRCQAQVSRRISFSASHRLYSKFLSDEENLKLFGKCNNPNGHGHNYKVVVTVHGEIDPATGMVMNLADLKKYMEEAIMQPLDHKNLDMDVPYFADVVSMTENVAVYIWDNLQKVLPVGVLYKVKVYETDNNIVVYKGE [T106M] the “effect of a mutation on the interaction” value was “disrupting interaction strength”. For MSTEGGGRRCQAQVSRRISFSASHQLYSKFLSDEENLKLFGKCNNPNGHGHNYKVVVTVHGEIDPATGMVMNLADLKKYMEEAIMQPLDHKNLDMDVPYFADVVSTTENVAVYIWDNLQKVLPVGVLYKVKVYETDNNIVVYKGE [R25Q], the “effect of a mutation on the interaction” value was “disrupting interaction strength”.

Variants of: B2
Conditions: with ntaq1_human NTAQ1, Q96HA8
In the case of MSTEGGGRCCQAQVSRRISFSASHRLYSKFLSDEENLKLFGKCNNPNGHGHNYKVVVTVHGEIDPATGMVMNLADLKKYMEEAIMQPLDHKNLDMDVPYFADVVSTTENVAVYIWDNLQKVLPVGVLYKVKVYETDNNIVVYKGE [R9C], the “effect of a mutation on the interaction” value is reported as “disrupting interaction strength”. For MSTEGGGRRCQAQVSRRISFSASHRLYSKFLSDEENLKLFGKCNNPNGHGHNYKVVVTVHGEIDPATGMVMNLADLKKYMEEAIMQPLDHKNLDMDVPYFADVVSMTENVAVYIWDNLQKVLPVGVLYKVKVYETDNNIVVYKGE [T106M], the “effect of a mutation on the interaction” value was “disrupting interaction strength”. For MSTEGGGRRCQAQVSRRISFSASHRLYSKFLSDEENLKLFGKCNNPNGHGHNYKVVVTVHGEIDPAMGMVMNLADLKKYMEEAIMQPLDHKNLDMDVPYFADVVSTTENVAVYIWDNLQKVLPVGVLYKVKVYETDNNIVVYKGE [T67M], the “effect of a mutation on the interaction” value was “disrupting interaction strength”. In the case of MSTEGGGRRCQAQVSRRISFSASHQLYSKFLSDEENLKLFGKCNNPNGHGHNYKVVVTVHGEIDPATGMVMNLADLKKYMEEAIMQPLDHKNLDMDVPYFADVVSTTENVAVYIWDNLQKVLPVGVLYKVKVYETDNNIVVYKGE [R25Q], the “effect of a mutation on the interaction” value is reported as “disrupting interaction strength”.

Variants of: B2
Conditions: with fxr2_human FXR2, P51116
MSTEGGGRCCQAQVSRRISFSASHRLYSKFLSDEENLKLFGKCNNPNGHGHNYKVVVTVHGEIDPATGMVMNLADLKKYMEEAIMQPLDHKNLDMDVPYFADVVSTTENVAVYIWDNLQKVLPVGVLYKVKVYETDNNIVVYKGE [R9C] was tested, and the “effect of a mutation on the interaction” value was “disrupting interaction strength”. In the case of MSTEGGGRRCQAQVSRRISFSASHRLYSKFLSDEENLKLFGKCNNPNGHGHNYKVVVTVHGEIDPATGMVMNLADLKKYMEEAIMQPLDHKNLDMDVPYFADVVSMTENVAVYIWDNLQKVLPVGVLYKVKVYETDNNIVVYKGE [T106M], the “effect of a mutation on the interaction” value is reported as “disrupting interaction strength”. With MSTEGGGRRCQAQVSRRISFSASHQLYSKFLSDEENLKLFGKCNNPNGHGHNYKVVVTVHGEIDPATGMVMNLADLKKYMEEAIMQPLDHKNLDMDVPYFADVVSTTENVAVYIWDNLQKVLPVGVLYKVKVYETDNNIVVYKGE [R25Q] the “effect of a mutation on the interaction” value was “disrupting interaction strength”.

Variants of: B2
Conditions: with sdcb1_human SDCBP
In the case of MSTEGGGRRCQAQVSRRISFSASHRLYSKFLSDEENLKLFGKCNNPNGHGHNYKVVVTVHGEIDPATGMVMNLADLKKYMEEAIMQPLDHKNLDMDVPYFADVVSMTENVAVYIWDNLQKVLPVGVLYKVKVYETDNNIVVYKGE [T106M], the “effect of a mutation on the interaction” value is reported as “disrupting interaction strength”.
